Data published in patent publication US12365875B2, “Methods for generating skeletal muscle progenitor cells” (The Regents of the University of California, priority 2017, dated 2025).

Tested on: hPSC-SMPCs
Experiment: Passaging and expansion of hPSC-SMPCs with added factors, gene expression
Assay type: cell-based, human
Experimental: At day 50, myogenic genes PAX7, MYF5, MYOD, MYOG, and MYH3 were measured by QPCR and expressed as fold-change versus day 35 of directed differentiation. […] Subsequently, IGF-1 was added to N2 media in all experiments (FIGS. 5-8, 10A-10D, 10F, 11, and 12A-12E). […] Subsequently, FGF2 was added to SkBM-2 media in experiments (FIGS. 5-8, 10A-10D, 10F, 11, and 12A-12E).
HiPSC-SMPC subpopulations enrich for PAX7 but activate and increase expression of MYOD after passaging. […] (FIG. 9A).

B1: WNT7A: Wnt family member added to SKBM2 expansion media (protein, UniProt O00755 32-349, looked up)
Protein Wnt-7a: LGASIICNKIPGLAPRQRAICQSRPDAIIVIGEGSQMGLDECQFQFRNGRWNCSALGERTVFGKELKVGSREAAFTYAIIAAGVAHAITAACTQGNLSDCGCDKEKQGQYHRDEGWKWGGCSADIRYGIGFAKVFVDAREIKQNARTLMNLHNNEAGRKILEENMKLECKCHGVSGSCTTKTCWTTLPQFRELGYVLKDKYNEAVHVEPVRASRNKRPTFLKIKKPLSYRKPMDTDLVYIEKSPNYCEEDPVTGSVGTQGRACNKTAPQASGCDLMCCGRGYNTHQYARVWQCNCKFHWCCYVKCNTCSERTEMYTCK
**Q.** With B1 as the molecule, how does the “stemness factors HEYL and CJUN” value (passaged SMPCs in SKBM2) read?
**A.** The value was “stabilize or increase stemness factors”.

**Q.** And the “PAX7 expression during expansion” value (passaged SMPCs, compared to SKBM2 alone)?
**A.** Its value is “rescues PAX7 expression”.
